{
  "source": "patent US12552837B2",
  "about": "“Bicyclic peptide ligands with detectable moieties and uses thereof” (BicycleRD Limited, priority 2017, dated 2026)",
  "key": {"[1]": {"test": "Organ distribution of 177Lu-labelled peptides in HT1080 xenograft mice", "format": "in vivo, BALB/c nu/nu mice", "conditions": "male, BALB/c nu/nu, iv, total radioactivity", "procedure": "(§1) General procedure for radiolabelling with Lu-177.\n(§2) • 50 μL 0.25 M Na-Acetate buffer pH 5.2+0.1% Tween 20; • 10 μL [Lu-177]LuCl3 in 0.05 M HCl; and • 2 μL of the diluted peptide (2 nmols). […]\n(§3) Organ distribution studies, general method: For organ distribution, the respective dose is prepared by dilution of the labeling reaction mixture in injection buffer (0.25 M Na-Acetate pH 7+0.05% Tween20). The ^177Lu-radiolabeled peptide was injected via the tail vein of the nu/nu mice (50 kBq per mouse), transplanted with the respective cell line. At indicated time points after injection the animals were sacrificed. Blood, heart, lung, spleen, liver, kidney, muscle, brain, femur, and the tumor were dissected, blotted dry, and weighed. The radioactivity was measured with a γ-counter (CobraII; Canberra Packard) along with a sample of the injection solution to calculate the percentage injected dose per gram of tissue (% ID/g).\n(§4) The γ- and β-emitter ^177LuCl3 (NEZ307D, Perkin Elmer, in 0.04 M HCl), with a t1/2 of 6.7 days was used for both in vivo biodistribution and internalization studies. Labeling reactions were performed by adding 10 μL ^177LuCl3 (˜10 MBq) in 50 mM HCl, 2 μL of the diluted peptide (1 mM solution in 50 mM HEPES buffer pH 7+0.1% Tween 20 diluted from a 10 mM DMSO stock) to 50 μL 50 mM HEPES buffer pH 7 supplemented with 0.1% Tween 20. The reaction mixture was incubated at 98° C. for 10 minutes. The radiochemical yield (RCY) was determined using high performance liquid chromatography (HPLC) system equipped with a Latek P402 (Latek, Eppelheim, Germany), a HITACHI variable UV detector (absorbance was measured at 214 and 254 nm) and a gamma detector (Bioscan, WA, USA), using a Chromolith RP-18 column (100×4.6 mm; Merck). The analytical HPLC run was performed at 4 mL/min, using a linear A (0.1% trifluoroacetic acid (TFA) in water) to B (0.1% TFA in acetonitrile) gradient (0% B to 100% B in 6 min). Thin-layer chromatography was performed in parallel to confirm the results of the radio-HPLC. The RCY was generally >95%, and thus, the output of labelling reactions was directly diluted with the appropriate buffer and further unlabeled peptide if required, to use in subsequent experiments.\n(§5) 5×10^6 cells of HT1080 were subcutaneously inoculated into the right trunk of male 6-week-old BALB/c nu/nu mice (Charles River Laboratories). The tumors were grown for approximately 1 week, to a maximum size of ˜200 mm^3. Respective doses were prepared by mixing a fixed quantity of 5 pmoles ^177Lu labelled peptides (at approx. 50 kBq) with different quantities of non-labelled peptide (derived from 1 mM stock solution in 0.25 M sodium acetate pH 7+0.05% Tween20) in 100 μL injection buffer (0.25 M sodium acetate pH 7+0.05% Tween20). 3 animals were used per dose and timepoint. Radiolabelled peptide solutions were injected via the tail vein, followed by sacrifice at various time points. Organs of interest (blood, heart, lung, spleen, liver, kidney, muscle, small intestine, brain, HT1080 tumor) were dissected, blotted dry, and weighed. The radioactivity was measured using a gamma counter and calculated as % ID/g."}, "HT1080 tumor": {"system": "HT1080 tumor", "test": "Organ distribution of 177Lu-labelled peptides in HT1080 xenograft mice", "format": "in vivo, BALB/c nu/nu mice", "conditions": "177Lu-labelled, 48 hr p.i.", "procedure": "as §1, §2, §3, §4, §5"}, "MT1-MMP hemopexin domain": {"target": "MT1-MMP hemopexin domain (Homo sapiens, UniProt P50281)", "test": "Fluorescence polarization direct binding / competition assay to MT1-MMP hemopexin domain", "procedure": "Direct Binding Fluorescence Polarization or Anisotropy Assays are performed by titrating a constant concentration of fluorescent tracer (here, the fluoresceinated bicyclic peptide to be studied) with its binding partner (here, the MT1-MMP hemopexin domain). As the concentration of binding partner increases during the titration, the polarization signal changes in proportion to the fraction of bound and unbound material. This allows determination of […] (Kd) quantitatively. Assay data can be fit using standard ligand binding equations.\nTypically, concentrations of the tracer are ideally well below the Kd of the tracer: titrant pair, and concentrations chosen are usually at ˜1 nM or less. The titrant (binding partner) concentration is varied from 0.1 nM up to typically 5 μM. The range is chosen such that the maximum change in fluorescent polarization can be observed. Buffers employed are phosphate buffered saline in the presence of 0.01% Tween. Experiments were run in black 384 well low-bind/low volume plates (Corning 3820), and the fluorescent polarization signal was measured using a BMG Pherastar FS plate reader. Fluorescent tracers referred to in the text are bicyclic peptides that have been fluoresceinated using 5,6-carboxyfluorescein. Fluoresceination may be performed on the N-terminal amino group of the peptide, which is separated from the bicycle core sequence by a sarcosine spacer (usually Sar10 (SEQ ID NO: 73)). This can be done during Fmoc solid phase synthesis or post-synthetically (after cyclization with the molecular scaffold reagent and purification) if the N-terminal amino group is unique to the peptide. Fluoresceination can also be performed on the C-terminus, usually on a Lysine introduced as the first C-terminal residue, which is then separated from the bicycle core sequence by a sarcosine spacer (usually Sar6 (SEQ ID NO: 69)). Thus, N-terminal tracers can have a molecular format described as Fluo-Ala-Sar10-A (SEQ ID NO: 72) (BicycleCoreSequence), and (BicycleCoreSequence)-A-Sar6-K (Fluo) (SEQ ID NO: 67) for a C-terminally fluoresceinated construct.\nFluorescent tracers used in the Examples are A-(17-69)-A-Sar6-K (Fluo) (SEQ ID NO: 67), A-(17-69-07)-A-Sar6-K (Fluo) (SEQ ID NO: 67), and A-(17-69-12)-A-Sar6-K (Fluo) (SEQ ID NO: 67). Due to the acidic nature of the 17-69 fluorescent peptides, they were typically prepared as concentrated DMSO stocks, from which dilution were prepared in 100 mM Tris pH 8 buffer.\nDue to their high affinities to the MT1-MMP Hemopexin domain (PEX), the fluoresceinated derivatives of 17-69-07 and 17-69-12 (denoted as 17-69-07-N040 and 17-69-12-N005, respectively) can be used for competition experiments (using FP for detection). […] Dissociation of the complex can be measured quantitatively, and the Kd of the competitor (titrant) to the target protein determined. The advantage of the competition method is that the affinities of non-fluoresceinated bicyclic peptides can be determined accurately and rapidly.\nSubsequently, the non-fluorescent competitor bicyclic peptide (usually just the bicycle core sequence) is titrated, such that it displaces the fluorescent tracer from the target protein. The displacement of the tracer is measured and associated with a drop in fluorescence polarization. The drop in fluorescence polarization is proportional to the fraction of target protein bound with the non-fluorescent titrant, and thus is a measure of the affinity of titrant to target protein. […]"}},
  "note": "Read-outs that look alike come from different tables or passages of the source. *1 amine or outer side, *2 acyl side, *3 side chain or, on linkers, in order; H or OH if unused. Where a SMILES comes first, the peptide text is derived from it. Bridges are numbered along the chain shown (N, C = ends). [ ]: non-standard residue; d: D form. The star is where a group is joined. DOTA = O=C(O)CN1CCN(CC(=O)O)CCN(CC(=O)*)CCN(CC(=O)O)CC1; 1Nal = N[C@@H](Cc1cccc2ccccc12)C(=O)O; TBMB = c1c(C[*:1])cc(C[*:3])cc1C[*:2]; Palmitoyl = CCCCCCCCCCCCCCCC(=O)*; Tle = CC(C)(C)[C@H](N)C(=O)O; βAla = NCCC(=O)O; Sar = CNCC(=O)O",
  "data": [
    {"smiles": "CCCCCCCCCCCCCCCC(=O)NCCC(=O)N(C)CC(=O)N(C)CC(=O)N(C)CC(=O)N(C)CC(=O)N(C)CC(=O)N[C@@H](CCCCNC(=O)CN1CCN(CC(=O)O)CCN(CC(=O)O)CCN(CC(=O)O)CC1)C(=O)N(C)CC(=O)N(C)CC(=O)N(C)CC(=O)N(C)CC(=O)N(C)CC(=O)N(C)CC(=O)N(C)CC(=O)N(C)CC(=O)N(C)CC(=O)N(C)CC(=O)N[C@@H](C)C(=O)N[C@H]1CSCc2cc3cc(c2)CSC[C@H](NC(=O)[C@@H](C)NC(=O)[C@H](Cc2cccc4ccccc24)NC(=O)[C@H](CCC(=O)O)NC(=O)[C@H](CC(N)=O)NC(=O)[C@@H](C)NC1=O)C(=O)N[C@@H](CCC(=O)O)C(=O)N[C@@H](CC(=O)O)C(=O)N[C@@H](Cc1ccccc1)C(=O)N[C@@H](Cc1ccc(O)cc1)C(=O)N[C@@H](CC(=O)O)C(=O)N[C@@H](C(C)(C)C)C(=O)N[C@H](C(N)=O)CSC3", "note": "[I-25] ({Palmitoyl-βAla}-[Sar][Sar][Sar][Sar][Sar]K(DOTA)[Sar][Sar][Sar][Sar][Sar][Sar][Sar][Sar][Sar][Sar]AC[dA]NE[1Nal][dA]CEDFYD[Tle]C-NH2; linker 18-24-31 via TBMB)", "values": [
      {"measurement": "tissue to tissue ratio at 6 h", "setting": "[1]; HT1080 tumor / blood, 750 pmole/mouse, 6 hrs, read-out: tumour to blood signal ratio", "value": 19},
      {"measurement": "tissue to tissue ratio at 48 h", "setting": "[1]; HT1080 tumor / blood, 750 pmole/mouse, 48 hrs, read-out: tumour to blood signal ratio", "value": 97},
      {"measurement": "tissue uptake at 2 h", "setting": "[1]; HT1080 tumor, 750 pmole/mouse, 2 h p.i., read-out: tumour accumulation", "value": "25 ± 1.61", "unit": "%ID/g"},
      {"measurement": "tissue uptake at 6 h", "setting": "[1]; HT1080 tumor, 750 pmole/mouse, 6 h p.i., read-out: tumor uptake (maximum)", "value": "35.9 ± 1.11", "unit": "%ID/g"},
      {"measurement": "tissue uptake at 48 h", "setting": "[1]; HT1080 tumor, 177Lu-labelled, 48 hr p.i., 750-1000 pmole/mouse, read-out: tumour signal", "value": "~26", "unit": "%ID/g"},
      {"measurement": "tissue uptake at 48 h", "setting": "[1]; mouse, HT1080 tumor, 750 pmoles injected dose, 48 h p.i., read-out: tumor accumulation in HT1080 xenografts", "value": "24.1 ± 2.5", "unit": "%ID/g"},
      {"measurement": "signals in spleen, liver and small intestine", "setting": "HT1080 tumor", "value": "< 4.5", "unit": "%"},
      {"measurement": "Kd", "setting": "MT1-MMP hemopexin domain", "value": "2.25 ± 0.5", "unit": "nM"}
    ]}
  ]
}
